PMC4218819

Assays:
Assay in all cases: EMSA
Conditions in all cases: 12 mM HEPES-KOH pH 7.6, 10 mM MgCl2, 200 mM NaCl, 4 mM Na2HPO4, 4 mM NaH2PO4, 0.4 mM EDTA, 1 mM DTT, 0.5% BSA, 10% glycerol, 200-fold poly(dI-dC), 1 nM DNA …
[1] = molecular target: AraR E30A E30A (Bacillus subtilis) (UniProt P96711)
[2] = molecular target: AraR WT (Bacillus subtilis) (UniProt P96711)
[3] = molecular target: AraR Y5F Y5F (Bacillus subtilis) (UniProt P96711)
[4] = tested on: AraR E30A (Bacillus subtilis)
[5] = tested on: AraR WT (Bacillus subtilis)
[6] = tested on: AraR Y5F (Bacillus subtilis)

Substance: GATTGACAGTATAATAGTCAATTACTATAATAAAATTGGTCGTACAAATATTTATTTATAGGTTTATTTTCTATCATTAGTACGTATCTTTTGTATTTGAAAGCGTTTTATTTTATGAGAAAGGG (double strand) [ORA1 T6->G]
- Kd [1]: 254 nM
- Kd [2]: 56 nM
- Kd [3]: 476 nM

Substance: GATTGACAGTATAATAGTCAATTACTATAATAAAATTGTTCGTACAAAGATTTATTTATAGGTTTATTTTCTATCATTAGTACGTATCTTTTGTATTTGAAAGCGTTTTATTTTATGAGAAAGGG (double strand) [ORA1 T16->G]
- Kd [1]: 347 nM
- Kd [2]: 110 nM
- Kd [3]: 355 nM

Substance: GATTGACAGTATAATAGTCAATTACTATAATAAAATTGTTCGTACAAATATTTATTTATAGGTTTATTTTCTATCATTAGTACGTATCTTTTGTATTTGAAAGCGTTTTATTTTATGAGAAAGGG (double strand) [araABDLMNPQ-abfA promoter ORA1-ORA2 WT]
- Kd [1]: 198 nM
- Kd [2]: 27 nM
- Kd [3]: 274 nM

Substance: GATTGACAGTATAATAGTCAATTACTATAATAAAATTTTTCGTACAAATATTTATTTATAGGTTTATTTTCTATCATTAGTACGTATCTTTTGTATTTGAAAGCGTTTTATTTTATGAGAAAGGG (double strand) [ORA1 G5->T]
- Kd [1]: 748 nM
- Kd [2]: 345 nM

Substance: GATTGACAGTATAATAGTCAATTACTATAATAACATTGTTCGTACAAATATTTATTTATAGGTTTATTTTCTATCATTAGTACGTATCTTTTGTATTTGAAAGCGTTTTATTTTATGAGAAAGGG (double strand) [ORA1 A1->C]
- Kd [1]: 675 nM
- Kd [2]: 74 nM
- Kd [3]: 331 nM

Substance: ORA1 A1->C
- Kd [4]: 67.5 10^-8 M
- Kd [5]: 7.4 10^-8 M
- Kd [6]: 33.1 10^-8 M

Substance: ORA1 G5->T
- Kd [4]: 74.8 10^-8 M
- Kd [5]: 34.5 10^-8 M
- Kd [6]: > 200 10^-8 M

Substance: ORA1 T6->G
- Kd [4]: 25.4 10^-8 M
- Kd [5]: 5.6 10^-8 M
- Kd [6]: 47.6 10^-8 M

Substance: ORA1 T16->G
- Kd [4]: 34.7 10^-8 M
- Kd [5]: 11 10^-8 M
- Kd [6]: 35.5 10^-8 M

Substance: araABDLMNPQ-abfA promoter ORA1-ORA2 WT
- Kd [4]: 19.8 10^-8 M
- Kd [5]: 2.7 10^-8 M
- Kd [6]: 27.4 10^-8 M
